Measurements as given in patent US8460669B2, “Compositions and methods for identifying response targets and treating flavivirus infection responses” (Academia Sinica, priority 2005, dated 2013).
Entries after “also recorded” stand apart in the source; their conditions may differ.

Experiments:
[1] = Enzyme linked immunoassay of receptor.Fc fusions on immobilized GLPS-F3; assay type: binding, Ganoderma lucidum; details: GLPS-F3 100 ng/well; receptor.Fc 1 μg/ml
Method: The interactions of polysaccharides with receptor.Fc fusion proteins was further investigated by performing an enzyme-linked immunoassay, which was based on immobilizing GLPS-F3 through both hydrophilic and hydrophobic forces onto microtiter plates (polysytrene). In this format, the number of different receptor.Fc fusions for profiling was increased in comparison to Example 7. To optimize the quantity of GLPS-F3 for immobilization, various amounts (3-1000 ng/well, diluted in 100 mM Tris buffer, pH9.5) of biotinylated-GLPS-F3 (Biotin-GLPS-F3) were coated onto MaxiSorp StarWell microtiter plates (50 μL/well; Nunc). The plates were incubated overnight at 4° C., and then the wells were washed twice with TBST, followed by blocking with 200 μL blocking buffer (2% BSA/TBST) for 1 hour at room temperature. Peroxidase-conjugated avidin (1:5000 dilution, Vector Laboratories) and TMB (tetramethylbenzidine) substrate was then used for detection of immobilized biotinylated GLPS-F3.
The interaction between GLPS-F3 and receptor.Fc was then tested. […] Wells were incubated with 100 μL TMB substrate for 15 min after TBST washing and read at 450 nm in a Fusion plate reader (Perkin Elmer). […]

[2] = system: Dengue virus; experiment: ELISA of receptor.Fc interaction with Dengue virus; assay type: binding; details: for binding to DV pretreated with heat or dithiothreitol: 95° C. 5 min or DTT 0.1 M; for binding to DV pretreated with PNGaseF: PNGaseF 500 U; for interaction of receptor.Fc with Dengue virus (ELISA): receptor.Fc 1 μg, DV 5×10^6
Method: One μg of each receptor.Fc fusion protein was coated onto microtiter plates overnight at 4° C. DV (5×10^6 particles) of strain 16681 (a DEN2 strain) in binding buffer (1% BSA, 2 mM CaCl2, 2 mM MgCl2, 50 mM Tris-HCl pH 7.5, 150 mM NaCl) was then added to the plates and the plates were incubated for 2 hours. After washing non-bound virus, a biotinylated anti-DEN2 envelope protein antibody (Wu et al., J Virol, 2002. 76(8): p. 3596-604) was applied to bind to the virus for 1 hour. Diluted horseradish peroxidase-conjugated streptavidin was then added to the plates, followed by a 1 hour incubation. TMB substrate was then added and the plates were read using an ELISA reader at OD450 nm.
The microtiter plate assay was repeated in the presence of EDTA (10 mM) to chelate Ca^++ cations.
The microtiter plate assay was also repeated for DVLR1/CLEC5A.Fc fusion protein with DV particles (5×10^6) that had been 1) preincubated with 500 U of the glycosidase PNGaseF (New England Biolabs, Inc.) overnight at 37° C.; or 2) treated with dithiothreitol (DTTI) (0.1M); or 3) incubated at 95° C. for 5 minutes; or 4) UV irradiated for 5 minutes. The results are shown in FIG. 8D (asterisks indicate where the binding affinity of DVLR1/CLEC5A.Fc fusion protein is altered by modification of the virus relative to non-treated virus; ** p<0.01, *** p<0.001, Student's t test). […]

[3] = system: Dengue virus; experiment: Immunoprecipitation of Dengue virus with receptor.Fc; assay type: binding; details: receptor.Fc 5 μg; DV 5×10^6; listed as DVLR1/CLEC5A.Fc
Method: The results are depicted in FIG. 8A (** indicates p<0.01, *** indicates p<0.001 (Student's t test)). […] Specifically, 5×10^6 Dengue virus particles were incubated with 5 μg of each protein, and then Protein A beads were added. The resulting immunocomplexes were washed, separated by SDS-PAGE, and transferred onto nitrocellulose membrane. The membrane was then probed with biotinylated anti-DEN2 envelope protein antibody and developed with horseradish peroxidase-conjugated streptavidin.
In FIG. 16b, complexes of DV (5×10^6 PFU) with receptor.Fc (5 μg) were immunoprecipitated and detected on westerns with mAb to DV envelope (E) protein. […] FIGS. 16d and 16e show sugar competition assays wherein both DC-SIGN (CLEC4L) and DVLR1/CLEC5A increase DV binding to human 293T cells (FIG. 16d), while addition of sugars inhibits biotinylated DV binding to DC-SIGN- (left panel) or DLVR1/CLEC5A- (right panel) transfected 293T cells in a dose-dependent manner as determined by flow cytometry (FIG. 16e). According to FIG. 16e, MFI represents mean fluorescence intensity. Units (U) for monosaccharide (mannose and fucose) and polysaccharide (mannan) are mM and mg/ml, respectively. […] Data are expressed as the mean±s.d. of three independent experiments. Two-tailed, Student's t-tests were performed. […]

[4] = system: JEV; experiment: ELISA of DVLR1/CLEC5A.Fc interaction with JEV; assay type: binding, Japanese encephamyelitis virus; details: 1 μg; JEV 5×10^6 PFU
Method: Like with DV, JEV follows a similar virus infection response pattern, which is believed to be the same or similar in all flaviviruses. […] (1 μg), with JEV and DV (5×10^6 PFU), respectively, were determined by ELISA. DV interacts with human DVLR1/CLEC5A (187 amino acid in length) SEQ ID NO: 72, but not the alternatively spliced form sDVLR1/CLEC5A (aa 43-65 is deleted). SEQ ID NO: 73. […] DAP12 in DV-infected macrophages were precipitated by anti-DAP12 mAb, blotted to nitrocellulose paper after fractionation on SDS-PAGE, followed by incubation with antibodies against phosphotyrosine and DAP12, respectively. JEV-induced DAP12 phosphorylation (m.o.i.=5) is inhibited by pLL3.7/DVLR1/CLEC5A. […] JEV-induced TNF-α secretion is inhibited by […] mAb (right). Data are expressed as the mean±s.d. of three independent experiments.

B1: Fc.MDL-1: extracellular domain of human DVLR1/CLEC5A (MDL-1) fused to the Fc portion of human IgG1 (protein)
chain: MNWHMIISGLIVVVLKVVGMTLFLLYFPQIFNKSNDGFTTTRSYGTVSQIFGSSSPSPNGFITTRSYGTVCPKDWEFYQARCFFLSTSESSWNESRDFCKGKGSTLAIVNTPEKLFLQDITDAEKYFIGLIYHREEKRWRWINNSVFNGNVTNQNQNFNCATIGLTKTFDAASCDISYRRICEKNAK
binding ability to GLPS-F3 [1]: minimal binding ability
binding to DV pretreated with heat or dithiothreitol [2]: abolish
binding to DV pretreated with heat or dithiothreitol ([2]; listed as DVLR1/CLEC5A.Fc): almost completely inhibited
Ca^++ dependence of binding to Dengue virus ([2]; EDTA 10 mM): Ca^++ independent; also recorded: no effect
binding to DV pretreated with PNGaseF [2]: substantially reduced
binding to DV pretreated with PNGaseF ([2]; listed as DVLR1/CLEC5A.Fc): inhibited DVLR1/CLEC5A.Fc interaction significantly
interaction of receptor.Fc with Dengue virus (ELISA) [2]: binds; also recorded: interacts
interaction of receptor.Fc with Dengue virus (ELISA) ([2]; listed as DVLR1/CLEC5A.Fc): able to capture DV2
immunoprecipitation of Dengue virus (E protein detected) [3]: able to immunoprecipitate DV; also recorded: detected
interaction with JEV (ELISA) [4]: not
